Measured values reported in US20230285581A1 (published 2023).

What was measured:
[1] = biological target: T1, mouse MSR1 extracellular domain expressed with a N-terminal nonahistidine tag (mouse, UniProt P30204 79-458); test: BLI (Octet), 25C, mAb captured; no dissociation seen, kd fixed at 5.00E-05
T1 construct: extracellular domain; Bought reagent; also called His9-mMSR1
T1 sequence: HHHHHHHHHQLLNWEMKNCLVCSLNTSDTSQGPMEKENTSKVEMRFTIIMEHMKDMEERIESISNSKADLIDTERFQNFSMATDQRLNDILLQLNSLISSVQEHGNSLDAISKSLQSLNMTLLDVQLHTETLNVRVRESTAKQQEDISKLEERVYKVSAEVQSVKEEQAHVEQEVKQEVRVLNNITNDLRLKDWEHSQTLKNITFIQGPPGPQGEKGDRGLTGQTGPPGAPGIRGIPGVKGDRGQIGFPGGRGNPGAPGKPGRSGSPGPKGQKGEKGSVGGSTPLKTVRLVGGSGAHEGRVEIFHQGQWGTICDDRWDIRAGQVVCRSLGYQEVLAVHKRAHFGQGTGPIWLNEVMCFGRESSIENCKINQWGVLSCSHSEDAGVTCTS
Description: Binding affinities and kinetic constants of human anti-MSR1 antibodies for different MSR1 reagents were determined using a real time, label-free bio-layer interferometry assay on an OCTET® HTX biosensor platform (Pall FortéBio Corp., Menlo Park, Calif.). The experiment was performed at 25° C. in 10 mM HEPES, 150 mM NaCl, 3 mM EDTA, 0.05% v/v Surfactant Tween-20, and 1 mg/mL BSA, pH7.4 (HBS-EBT) buffer with the plate shaking at the speed of 1000 rpm. […] The anti-MSR1 monoclonal antibodies were captured by dipping either anti-human Fc (AHC) or anti-mouse Fc (AMC) Octet biosensors in wells containing 5 μg/mL or 10 μg/mL of anti-MSR1 monoclonal antibody for 45-90 seconds. […] The binding of different MSR1 reagents to the captured anti-MSR1 monoclonal antibody was measured for 4 minutes and the dissociation of monoclonal antibody bound MSR1 reagent was monitored for 8-10 minutes in HBS-EBT buffer.
The association rate (kₐ) and dissociation rate (kd) were determined by fitting the real-time binding sensorgrams to a 1:1 binding model with mass transport limitation using Scrubber 2.0c curve-fitting software. Binding dissociation equilibrium constant (KD) and dissociative half-life (t½) were calculated from the kinetic rates as:

[2] = biological target: T2, full length monkey MSR1 on HEK293.mfMSR1 cells (Macaca fascicularis, UniProt A0A2K5UWE2 1-451); test: ECL cell binding, HEK293.mfMSR1 cells
T2 construct: whole, on cells
T2 sequence: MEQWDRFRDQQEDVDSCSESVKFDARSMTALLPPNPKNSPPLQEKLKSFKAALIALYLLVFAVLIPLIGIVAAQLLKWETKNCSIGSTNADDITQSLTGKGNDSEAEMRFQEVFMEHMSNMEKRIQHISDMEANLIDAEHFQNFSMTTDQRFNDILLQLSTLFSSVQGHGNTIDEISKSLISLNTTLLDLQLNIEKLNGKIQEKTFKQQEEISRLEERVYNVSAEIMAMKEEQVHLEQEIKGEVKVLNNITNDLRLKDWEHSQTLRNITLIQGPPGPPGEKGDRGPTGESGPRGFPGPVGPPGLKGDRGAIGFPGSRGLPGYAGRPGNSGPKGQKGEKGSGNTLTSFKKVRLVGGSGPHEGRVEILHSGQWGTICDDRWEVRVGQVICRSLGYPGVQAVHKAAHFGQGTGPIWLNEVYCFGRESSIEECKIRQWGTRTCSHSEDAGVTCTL

Row | Binder | t½ [1] [min] | ratio of 11 nM antibody binding signal (RLU) to isotype control [2] [ratio]
1 | H1H21234N-N297Q (antibody, human IgG1, V domains shown, human IgG1 Fc with N297Q) VH: QVQLQESGPGLVKPSETLSLTCTVTGGSISRNYWSWIRQPPGKGLEWIGYIYYSGSIDYNPSLKSRVTISVDTSKNQFSLKLSSMTAADTAVYYCARDRWNWKYGMDVWGQGTTVIVSS VL: EIVLTQSPGTLSLSPGERATLSCRASQTVRNNYLAWYHQKPGQAPRLLIYGASSRATGIPDRFSGSGSGTDFTLTISRLEPEDFTVYYCHQYGNSPWTFGQGTKMEIKR | ≥ 231 | 
2 | H1H21234N (antibody, human IgG1, V domains shown, original human IgG1 Fc) VH: QVQLQESGPGLVKPSETLSLTCTVTGGSISRNYWSWIRQPPGKGLEWIGYIYYSGSIDYNPSLKSRVTISVDTSKNQFSLKLSSMTAADTAVYYCARDRWNWKYGMDVWGQGTTVIVSS VL: EIVLTQSPGTLSLSPGERATLSCRASQTVRNNYLAWYHQKPGQAPRLLIYGASSRATGIPDRFSGSGSGTDFTLTISRLEPEDFTVYYCHQYGNSPWTFGQGTKMEIKR | ≥ 231 | 
3 | H2aM21229N (antibody, mouse IgG2a, V domains shown, mouse IgG2a Fc (H2aM)) VH: EVQLVESGGGLVKPGGSLRLSCAASGFTFSRYSMNWVRQAPGKGLEWVSSISSSSSYIYYGDTVKGRFTISRDNAKKSLYLQMNSLRAEDTAVYYCVRDRGQLVLYFDYWGQGTLVTVSS VL: DIQMTQSPASLSTSIRDRVTITCRASLSISSFLNWFQQRPGKAPKLLIYVASNLQSGVPSRFSDSGSGTDFTLTISSLQPEDFATYYCQQNYSTPPITFGQGTRLEIK |  | 27
4 | H1xH29282P2 (antibody, V domains shown, the prefix H1xH is not explained for the anti-MSR1 antibodies) VH: EVQLVESGGGLVQPGGSLRLSCAASGFTFSTYAMSWVRQAPGKGLEWVSTISGRSDITYFADSVKGRFTVSRDNSKTTLYLQMNSLRAEDTAVYYCATDDDLPLDYWGQGTLVTVSS VL: not shown |  | 1
5 | H1H27766P2-N297Q (antibody, human IgG1, V domains shown, human IgG1 Fc with N297Q; also called H1H27766P-N297Q) VH: EVQLVESGGGLVQPGGSLRLSCAASGFTFSSFAMSWVRQAPGKELEWVSSISGRGGSTYYADSVRGRFTISRDNSKITLYLQMNSLRAEDTAVYYCAKDIVFRYTSSAYWYFDLWGRGTLVTVSS VL: not shown |  | 13
